Test results from patent US20140274782A1, “AFFINITY REAGENTS AND METHODS FOR DETECTION, PURIFICATION, AND PROTEOMIC ANALYSIS OF METHYLATED PROTEINS” (The Board of Trustees of the Leland Stanford Junior …, priority 2013, published 2014).
One block for each molecule: values may come before it.

Assays:
3×MBT domain of L3MBTL1 = test: Triple SILAC pull-down, 3xMBT/3xMBTD355N ratio (cytoplasmic, nuclear and chromatin fractions of 293T cells); type: binding, human; conditions: SILAC ratio, pull-down by 3xMBT vs 3xMBTD355N, 293T cells;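 further: proteins quantified with MaxQuant, requiring at least two unique peptides and quantification in both label directions, normalized to the mean of proteins from a digested loading control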
G9a and GLP = target: T1, G9a and GLP (Homo sapiens, UniProt Q96KQ7+Q9H9B1); test: Triple SILAC pull-down after UNC0638 treatment of 293T cells, DMSO/UNC0638 ratio of protein captured by 3×MBT; type: cell-based; set-up: cells were treated for 24 hours with UNC0638 at 2.5 μM or DMSO vehicle control; endogenous in cells; host or cells: HEK 293T; conditions: SILAC ratio of protein captured by 3xMBT, 293T cells treated 24 hours with UNC0638 at 2.5 μM or DMSO;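 further: mass spectrometry (Q-Exactive) SILAC quantitation, DMSO/UNC0638 ratio computed after subtracting 3×MBTD355N mutant pull-down background, only proteins with at least twofold 3×MBT over mutant signal considered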
T1 sequence (Q96KQ7 2-1210 limits assumed): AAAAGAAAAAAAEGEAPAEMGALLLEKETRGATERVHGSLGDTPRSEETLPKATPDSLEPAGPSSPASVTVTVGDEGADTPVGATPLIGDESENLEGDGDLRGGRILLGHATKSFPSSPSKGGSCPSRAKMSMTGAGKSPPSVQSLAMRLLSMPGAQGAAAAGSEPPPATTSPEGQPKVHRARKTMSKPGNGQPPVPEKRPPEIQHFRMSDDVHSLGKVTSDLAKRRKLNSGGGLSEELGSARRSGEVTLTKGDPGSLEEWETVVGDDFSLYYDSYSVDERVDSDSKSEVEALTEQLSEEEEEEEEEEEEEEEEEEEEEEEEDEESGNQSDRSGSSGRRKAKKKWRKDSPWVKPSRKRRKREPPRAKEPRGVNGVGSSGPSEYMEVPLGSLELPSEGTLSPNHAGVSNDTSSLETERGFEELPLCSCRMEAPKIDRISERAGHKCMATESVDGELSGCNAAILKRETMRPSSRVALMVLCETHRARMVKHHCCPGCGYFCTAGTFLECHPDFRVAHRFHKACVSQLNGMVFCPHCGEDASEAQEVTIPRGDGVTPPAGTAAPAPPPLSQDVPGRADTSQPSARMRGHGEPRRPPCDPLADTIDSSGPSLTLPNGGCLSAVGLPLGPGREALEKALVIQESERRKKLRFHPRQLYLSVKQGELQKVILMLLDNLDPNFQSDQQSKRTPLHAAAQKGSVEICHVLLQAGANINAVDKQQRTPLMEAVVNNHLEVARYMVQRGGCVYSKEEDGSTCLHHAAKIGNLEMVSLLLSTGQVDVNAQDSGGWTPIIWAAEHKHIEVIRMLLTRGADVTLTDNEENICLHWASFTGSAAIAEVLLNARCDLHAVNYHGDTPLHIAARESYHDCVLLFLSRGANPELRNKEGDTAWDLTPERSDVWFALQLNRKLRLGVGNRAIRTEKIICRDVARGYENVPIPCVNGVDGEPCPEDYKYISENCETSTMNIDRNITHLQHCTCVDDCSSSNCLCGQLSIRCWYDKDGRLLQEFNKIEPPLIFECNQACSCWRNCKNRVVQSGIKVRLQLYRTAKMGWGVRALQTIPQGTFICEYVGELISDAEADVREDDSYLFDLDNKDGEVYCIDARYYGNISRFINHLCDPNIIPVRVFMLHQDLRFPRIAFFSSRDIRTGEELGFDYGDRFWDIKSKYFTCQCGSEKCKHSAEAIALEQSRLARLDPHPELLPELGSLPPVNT
T1 sequence (Q9H9B1 2-1298 limits assumed): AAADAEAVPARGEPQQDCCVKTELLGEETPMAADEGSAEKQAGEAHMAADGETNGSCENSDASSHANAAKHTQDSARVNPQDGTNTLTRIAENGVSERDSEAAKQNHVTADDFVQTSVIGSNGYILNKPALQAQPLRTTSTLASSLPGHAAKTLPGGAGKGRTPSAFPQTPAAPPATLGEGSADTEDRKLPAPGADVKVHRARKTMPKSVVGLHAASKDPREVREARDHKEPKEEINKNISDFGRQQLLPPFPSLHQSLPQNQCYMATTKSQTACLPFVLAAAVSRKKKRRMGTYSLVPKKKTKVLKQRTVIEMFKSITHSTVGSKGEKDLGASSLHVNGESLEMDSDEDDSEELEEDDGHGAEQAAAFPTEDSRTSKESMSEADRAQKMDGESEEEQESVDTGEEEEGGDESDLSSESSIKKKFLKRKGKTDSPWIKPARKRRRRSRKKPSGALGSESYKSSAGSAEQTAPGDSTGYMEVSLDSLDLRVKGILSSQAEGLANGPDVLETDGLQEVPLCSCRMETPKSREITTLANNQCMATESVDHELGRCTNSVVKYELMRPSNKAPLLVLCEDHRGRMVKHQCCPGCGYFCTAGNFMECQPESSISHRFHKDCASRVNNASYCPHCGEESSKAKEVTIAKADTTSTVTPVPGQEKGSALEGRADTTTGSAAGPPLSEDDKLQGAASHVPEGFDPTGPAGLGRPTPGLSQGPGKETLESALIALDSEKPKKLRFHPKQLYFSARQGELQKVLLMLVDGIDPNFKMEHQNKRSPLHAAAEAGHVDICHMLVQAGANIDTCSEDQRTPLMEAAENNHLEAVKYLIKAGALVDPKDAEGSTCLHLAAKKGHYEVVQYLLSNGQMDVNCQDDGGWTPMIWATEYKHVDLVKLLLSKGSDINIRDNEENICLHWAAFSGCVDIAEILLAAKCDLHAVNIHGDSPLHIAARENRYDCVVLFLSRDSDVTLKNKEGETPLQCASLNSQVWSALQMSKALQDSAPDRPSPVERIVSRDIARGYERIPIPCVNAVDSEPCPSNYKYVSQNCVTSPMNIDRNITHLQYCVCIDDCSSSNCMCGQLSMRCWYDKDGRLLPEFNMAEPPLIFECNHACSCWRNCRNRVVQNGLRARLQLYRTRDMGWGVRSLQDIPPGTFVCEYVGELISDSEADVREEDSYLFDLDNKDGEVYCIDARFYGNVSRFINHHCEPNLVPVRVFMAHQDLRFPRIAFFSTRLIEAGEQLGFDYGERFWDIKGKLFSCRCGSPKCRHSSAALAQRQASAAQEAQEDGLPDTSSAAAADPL

- Protein Ratios DMSO/UNC0638 (G9a and GLP): 1.4
B1: Probable ATP-dependent RNA helicase DDX46 (protein, UniProt Q7L014 2-1031, looked up)
Probable ATP-dependent RNA …: GRESRHYRKRSASRGRSGSRSRSRSPSDKRSKRGDDRRSRSRDRDRRRERSRSRDKRRSRSRDRKRLRRSRSRERDRSRERRRSRSRDRRRSRSRSRGRRSRSSSPGNKSKKTENRSRSKEKTDGGESSKEKKKDKDDKEDEKEKDAGNFDQNKLEEEMRKRKERVEKWREEQRKKAMENIGELKKEIEEMKQGKKWSLEDDDDDEDDPAEAEKEGNEMEGEELDPLDAYMEEVKEEVKKFNMRSVKGGGGNEKKSGPTVTKVVTVVTTKKAVVDSDKKKGELMENDQDAMEYSSEEEEVDLQTALTGYQTKQRKLLEPVDHGKIEYEPFRKNFYVEVPELAKMSQEEVNVFRLEMEGITVKGKGCPKPIKSWVQCGISMKILNSLKKHGYEKPTPIQTQAIPAIMSGRDLIGIAKTGSGKTIAFLLPMFRHIMDQRSLEEGEGPIAVIMTPTRELALQITKECKKFSKTLGLRVVCVYGGTGISEQIAELKRGAEIIVCTPGRMIDMLAANSGRVTNLRRVTYVVLDEADRMFDMGFEPQVMRIVDNVRPDRQTVMFSATFPRAMEALARRILSKPIEVQVGGRSVVCSDVEQQVIVIEEEKKFLKLLELLGHYQESGSVIIFVDKQEHADGLLKDLMRASYPCMSLHGGIDQYDRDSIINDFKNGTCKLLVATSVAARGLDVKHLILVVNYSCPNHYEDYVHRAGRTGRAGNKGYAYTFITEDQARYAGDIIKALELSGTAVPPDLEKLWSDFKDQQKAEGKIIKKSSGFSGKGFKFDETEQALANERKKLQKAALGLQDSDDEDAAVDIDEQIESMFNSKKRVKDMAAPGTSSVPAPTAGNAEKLEIAKRLALRINAQKNLGIESQDVMQQATNAILRGGTILAPTVSAKTIAEQLAEKINAKLNYVPLEKQEEERQDGGQNESFKRYEEELEINDFPQTARWKVTSKEALQRISEYSEAAITIRGTYFPPGKEPKEGERKIYLAIESANELAVQKAKAEITRLIKEELIRLQNSYQPTNKGRYKVL
- Protein Ratios 3xMBT/D355N (3×MBT domain of L3MBTL1): 5.2

- Protein Ratios DMSO/UNC0638 (G9a and GLP): 1.4
B2: Cytoplasmic FMR1-interacting protein 1 (protein, UniProt Q7L576 1-1253, looked up)
Cytoplasmic FMR1-interacting …: MAAQVTLEDALSNVDLLEELPLPDQQPCIEPPPSSLLYQPNFNTNFEDRNAFVTGIARYIEQATVHSSMNEMLEEGQEYAVMLYTWRSCSRAIPQVKCNEQPNRVEIYEKTVEVLEPEVTKLMNFMYFQRNAIERFCGEVRRLCHAERRKDFVSEAYLITLGKFINMFAVLDELKNMKCSVKNDHSAYKRAAQFLRKMADPQSIQESQNLSMFLANHNKITQSLQQQLEVISGYEELLADIVNLCVDYYENRMYLTPSEKHMLLKVMGFGLYLMDGSVSNIYKLDAKKRINLSKIDKYFKQLQVVPLFGDMQIELARYIKTSAHYEENKSRWTCTSSGSSPQYNICEQMIQIREDHMRFISELARYSNSEVVTGSGRQEAQKTDAEYRKLFDLALQGLQLLSQWSAHVMEVYSWKLVHPTDKYSNKDCPDSAEEYERATRYNYTSEEKFALVEVIAMIKGLQVLMGRMESVFNHAIRHTVYAALQDFSQVTLREPLRQAIKKKKNVIQSVLQAIRKTVCDWETGHEPFNDPALRGEKDPKSGFDIKVPRRAVGPSSTQLYMVRTMLESLIADKSGSKKTLRSSLEGPTILDIEKFHRESFFYTHLINFSETLQQCCDLSQLWFREFFLELTMGRRIQFPIEMSMPWILTDHILETKEASMMEYVLYSLDLYNDSAHYALTRFNKQFLYDEIEAEVNLCFDQFVYKLADQIFAYYKVMAGSLLLDKRLRSECKNQGATIHLPPSNRYETLLKQRHVQLLGRSIDLNRLITQRVSAAMYKSLELAIGRFESEDLTSIVELDGLLEINRMTHKLLSRYLTLDGFDAMFREANHNVSAPYGRITLHVFWELNYDFLPNYCYNGSTNRFVRTVLPFSQEFQRDKQPNAQPQYLHGSKALNLAYSSIYGSYRNFVGPPHFQVICRLLGYQGIAVVMEELLKVVKSLLQGTILQYVKTLMEVMPKICRLPRHEYGSPGILEFFHHQLKDIVEYAELKTVCFQNLREVGNAILFCLLIEQSLSLEEVCDLLHAAPFQNILPRVHVKEGERLDAKMKRLESKYAPLHLVPLIERLGTPQQIAIAREGDLLTKERLCCGLSMFEVILTRIRSFLDDPIWRGPLPSNGVMHVDECVEFHRLWSAMQFVYCIPVGTHEFTVEQCFGDGLHWAGCMIIVLLGQQRRFAVLDFCYHLLKVQKHDGKDEIIKNVPLKKMVERIRKFQILNDEIITILDKYLKSGDGEGTPVEHVRCFQPPIHQSLASS
- Protein Ratios 3xMBT/D355N (3×MBT domain of L3MBTL1): 3.4
